Laboratory results from patent US20060292657A1, “Phex substrates and methods using same” (priority 2003, published 2006).
“And” between values parts separate entries of the source, which are not always exact repeats. Equal entries are not always repeated.

Legend:
Abz-GFSEYK(Dnp)-OH = molecular target: T1, Abz-GFSEYK(Dnp)-OH
T1 chain: GFSEYK

Abz-S513-SDSGSQ-EDDnp = molecular target: T2, Abz-S513-SDSGSQ-EDDnp
T2 chain: SSDSGSQ

Abz-G337-SNDIMGQ-EDDnp = molecular target: T3, Abz-G337-SNDIMGQ-EDDnp
T3 chain: GSNDIMGQ

[1] = molecular target: T4, Abz-R175-RHTQSAEDDSERQ-EDDnp
T4 chain: RRHTQSAEDDSERQ

Abz-GFSDYQ-EDDnp = molecular target: T5, Abz-GFSDYQ-EDDnp
T5 chain: GFSDYQ

Abz-L134-ELDSRQ-EDDnp = molecular target: T6, Abz-L134-ELDSRQ-EDDnp
T6 chain: LELDSRQ

Abz-N449-EMDSFNQ-EDDnp = molecular target: T7, Abz-N449-EMDSFNQ-EDDnp
T7 chain: NEMDSFNQ

Abz-S212-AEDNSPQ-EDDnp = molecular target: T8, Abz-S212-AEDNSPQ-EDDnp
T8 chain: SAEDNSPQ

[2] = molecular target: T9, Abz-R175-RHTRSAEDDSERQ-EDDnp
T9 chain: RRHTRSAEDDSERQ

Abz-GFSDYK(Dnp)-OH = molecular target: T10, Abz-GFSDYK(Dnp)-OH
T10 chain: GFSDYK

Abz-GFSDYK(Dnp)-NH2 = molecular target: T11, Abz-GFSDYK(Dnp)-NH2
T11 chain: GFSDYK

Abz-A110-WLDSGVQ-EDDnp = molecular target: T12, Abz-A110-WLDSGVQ-EDDnp
T12 chain: AWLDSGVQ

Abz-GFSEYK(Dnp)-NH2 = molecular target: T13, Abz-GFSEYK(Dnp)-NH2
T13 chain: GFSEYK

Abz-DRRL-EDDnp = molecular target: T14, Abz-DRRL-EDDnp
T14 chain: DRRL

Abz-GP197-QRDSQAQ-EDDnp = molecular target: T15, Abz-GP197-QRDSQAQ-EDDnp
T15 chain: GPQRDSQAQ

Abz-N122-GYDVYHQ-EDDnp = molecular target: T16, Abz-N122-GYDVYHQ-EDDnp
T16 chain: NGYDVYHQ

Abz-R441-GLDNEIQ-EDDnp = molecular target: T17, Abz-R441-GLDNEIQ-EDDnp
T17 chain: RGLDNEIQ

Abz-I232-PSDFEGQ-EDDnp = molecular target: T18, Abz-I232-PSDFEGQ-EDDnp
T18 chain: IPSDFEGQ

Abz-R506-RDDSSEQ-EDDnp = molecular target: T19, Abz-R506-RDDSSEQ-EDDnp
T19 chain: RRDDSSEQ

Abz-D125-HLSDTSTQ-EDDnp = molecular target: T20, Abz-D125-HLSDTSTQ-EDDnp
T20 chain: DHLSDTSTQ

Abz-R76-SEDAGFQ-EDDnp = molecular target: T21, Abz-R76-SEDAGFQ-EDDnp
T21 chain: RSEDAGFQ

Abz-G386-SSDAAEQ-EDDnp = molecular target: T22, Abz-G386-SSDAAEQ-EDDnp
T22 chain: GSSDAAEQ

Abz-T294-HLDTKKQ-EDDnp = molecular target: T23, Abz-T294-HLDTKKQ-EDDnp
T23 chain: THLDTKKQ

Abz-L94-MMDFRGQ-EDDnp = molecular target: T24, Abz-L94-MMDFRGQ-EDDnp
T24 chain: LMMDFRGQ

[3] = substrate: Nc1ccccc1C(=O)NCC(=O)N[C@@H](Cc1ccccc1)C(=O)N[C@@H](CO)C(=O)N[C@@H](CC(=O)O)C(=O)N[C@@H](Cc1ccc(O)cc1)C(=O)N[C@@H](CCCCNc1ccc([N+](=O)[O-])cc1[N+](=O)[O-])C(=O)O; assay: Hydrolysis by secPHEX added to membranes of vector-transfected LLC-PK1 cells; type: biochemical, human; details: other: secPHEX added to membranes from cells transfected with vector alone, 0.01 M Bis-Tris pH 5.5, 150 mM NaCl, 37° C.
Method: FIG. 3 graphically illustrates hydrolysis of Abz-GFSDYK(Dnp)-OH (SEQ ID NO:3) by secPHEX and membrane-bound PHEX. Abz-GFSDYK(Dnp)-OH (SEQ ID NO:3) at a concentration of 10 μM was incubated at 37° C., in 0.01 M Bis-Tris buffer, pH 5.5 with 150 mM NaCl, containing 2,1 μg total proteins from membranes extracted from LLC-PK1 transfected with vector alone (notes as “A” on the figure), or 2,1 μg total proteins from membranes extracted from LLC-PK1 transfected with the membrane-bound form of human PHEX (noted as “□” on the figure); or 2,1 μg total proteins from membranes extracted from LLC-PK1 transfected with vector alone to which 500 ng purified secPHEX were added (noted as “o” on the figure). Fluorescence was monitored every 4 min for a period of 28 min. Amounts of secPHEX or membrane-bound PHEX (mPHEX) in the enzymatic reactions were evaluated by immunoblotting (Inset). Mock: cells transfected with vector alone;
The human recombinant secPHEX was obtained following the procedure previously described (17, WO 00/50580). Purified secPHEX concentration was determined using the Bradford method (DC protein assay kit; Bio-Rad, Mississauga, ON, Canada). […] Insoluble material was pelleted by centrifugation at 10,000 g for 15 min and protein concentrations of the supernatant determined using the Bradford method described above. PHEX amounts were evaluated by immunoblotting as described previously (17). […]

B1: human recombinant secPHEX (pure soluble form of PHEX) (protein)
chain: SLQAKQEYCLKPECIEAAAAILSKVNLSVDPCDNFFRFACDGWISNNPIPEDMPSYGVYPWLRHNVDLKLKELLEKSISRRRDTEAIQKAKILYSSCMNEKAIEKADAKPLLHILRHSPFRWPVLESNIGPEGVWSERKFSLLQTLATFRGQYSNSVFIRLYVSPDDKASNEHILKLDQATLSLAVREDYLDNSTEAKSYRDALYKFMVDTAVLLGANSSRAEHDMKSVLRLEIKIAEIMIPHENRTSEAMYNKMNISELSAMIPQFDWLGYIKKVIDTRLYPHLKDISPSENVVVRVPQYFKDLFRILGSERKKTIANYLVWRMVYSRIPNLSRRFQYRWLEFSRVIQGTTTLLPQWDKCVNFIESALPYVVGKMFVDVYFQEDKKEMMEELVEGVRWAFIDMLEKENEWMDAGTKRKAKEKARAVLAKVGYPEFIMNDTHVNEDLKAIKFSEADYFGNVLQTRKYLAQSDFFWLRKAVPKTEWFTNPTTVNAFYSASTNQIRFPAGELQKPFFWGTEYPRSLSYGAIGVIVGHEFTHGFDNNGRKYDKNGNLDPWWSTESEEKFKEKTKCMINQYSNYYWKKAGLNVKGKRTLGENIADNGGLREAFRAYRKWINDRRQGLEEPLLPGITFTNNQLFFLSYAHVRCNSYRPEAAREQVQIGAHSPPQFRVNGAISNFEEFQKAFNCPPNSTMNRGMDSCRLW
For B1, the kcat/Km (pseudo first-order conditions) (Abz-GFSEYK(Dnp)-OH) was 9000 M⁻¹ s⁻¹, the Km (Abz-S513-SDSGSQ-EDDnp) was 31.6 µM and the kcat (Abz-S513-SDSGSQ-EDDnp) was 0.2 s⁻¹. For the same protein, the kcat/Km (Abz-S513-SDSGSQ-EDDnp) was 7100 M⁻¹ s⁻¹, the Km (Abz-G337-SNDIMGQ-EDDnp) was 13 µM and the kcat (Abz-G337-SNDIMGQ-EDDnp) was 0.01 s⁻¹. For the same protein, the kcat/Km (Abz-G337-SNDIMGQ-EDDnp) was 800 M⁻¹ s⁻¹, the Km [1] was 1.7 µM and the kcat [1] was 0.15 s⁻¹. The kcat/Km [1] was 88200 M⁻¹ s⁻¹, the Km (Abz-GFSDYQ-EDDnp) was 13.3 µM and the kcat (Abz-GFSDYQ-EDDnp) was 0.6 s⁻¹. It also gave a kcat/Km (Abz-GFSDYQ-EDDnp) of 45100 M⁻¹ s⁻¹, a Km (Abz-L134-ELDSRQ-EDDnp) of 0.9 µM and a kcat (Abz-L134-ELDSRQ-EDDnp) of 0.05 s⁻¹. It also gave a kcat/Km (Abz-L134-ELDSRQ-EDDnp) of 55500 M⁻¹ s⁻¹, a Km (Abz-N449-EMDSFNQ-EDDnp) of 38 µM and a kcat (Abz-N449-EMDSFNQ-EDDnp) of 0.3 s⁻¹. For the same protein, the kcat/Km (Abz-N449-EMDSFNQ-EDDnp) was 7900 M⁻¹ s⁻¹, the Km (Abz-S212-AEDNSPQ-EDDnp) was 22 µM and the kcat (Abz-S212-AEDNSPQ-EDDnp) was 0.3 s⁻¹. The kcat/Km (Abz-S212-AEDNSPQ-EDDnp) was 13600 M⁻¹ s⁻¹, the Km [2] was 3 µM and the kcat [2] was 0.2 s⁻¹. For the same protein, the kcat/Km [2] was 66700 M⁻¹ s⁻¹, the Km (Abz-GFSDYK(Dnp)-OH) was 3 µM and 5×10^-6 M and 10×10^-6 M, for secPHEX and membrane-bound PHEX, respectively and the kcat (Abz-GFSDYK(Dnp)-OH) was 0.5 s⁻¹. For the same protein, the kcat/Km (Abz-GFSDYK(Dnp)-OH) was 167000 M⁻¹ s⁻¹, the “substrate hydrolysis (fluorescence)” value (Abz-GFSDYK(Dnp)-OH) was “degradation of the substrate was observed” and the Km (Abz-GFSDYK(Dnp)-NH2) was 53.2 µM. The “fold decrease in catalytic efficiency against Abz-GFSDYK(Dnp)-OH” value (Abz-GFSDYK(Dnp)-NH2) was “a 6-fold decrease in catalytic efficiency due to its low affinity for the enzyme”, the kcat (Abz-GFSDYK(Dnp)-NH2) was 1.3 s⁻¹ and the kcat/Km (Abz-GFSDYK(Dnp)-NH2) was 24400 M⁻¹ s⁻¹. For the same protein, the Km (Abz-A110-WLDSGVQ-EDDnp) was 1.5 µM, the kcat (Abz-A110-WLDSGVQ-EDDnp) was 0.04 s⁻¹ and the kcat/Km (Abz-A110-WLDSGVQ-EDDnp) was 26700 M⁻¹ s⁻¹. For the same protein, the “hydrolysis by PHEX” value (Abz-GFSEYK(Dnp)-NH2) was “Resistant”, the “substrate hydrolysis (fluorescence)” value (Abz-DRRL-EDDnp) was “Neither enzyme hydrolyzed this substrate” and the Km (Abz-GP197-QRDSQAQ-EDDnp) was 47 µM. It also gave a kcat (Abz-GP197-QRDSQAQ-EDDnp) of 0.2 s⁻¹, a kcat/Km (Abz-GP197-QRDSQAQ-EDDnp) of 4300 M⁻¹ s⁻¹ and a Km (Abz-N122-GYDVYHQ-EDDnp) of 9 µM. It also gave a kcat (Abz-N122-GYDVYHQ-EDDnp) of 0.01 s⁻¹, a kcat/Km (Abz-N122-GYDVYHQ-EDDnp) of 1100 M⁻¹ s⁻¹ and a Km (Abz-R441-GLDNEIQ-EDDnp) of 7 µM. For the same protein, the kcat (Abz-R441-GLDNEIQ-EDDnp) was 0.03 s⁻¹, the kcat/Km (Abz-R441-GLDNEIQ-EDDnp) was 4300 M⁻¹ s⁻¹ and the kcat/Km (pseudo-first order conditions) (Abz-I232-PSDFEGQ-EDDnp) was 80000 M⁻¹ s⁻¹. It also gave a Km (Abz-R506-RDDSSEQ-EDDnp) of 5.3 µM, a kcat (Abz-R506-RDDSSEQ-EDDnp) of 0.5 s⁻¹ and a kcat/Km (Abz-R506-RDDSSEQ-EDDnp) of 94300 M⁻¹ s⁻¹. For the same protein, the Km (Abz-D125-HLSDTSTQ-EDDnp) was 1.3 µM, the kcat (Abz-D125-HLSDTSTQ-EDDnp) was 0.1 s⁻¹ and the kcat/Km (Abz-D125-HLSDTSTQ-EDDnp) was 77000 M⁻¹ s⁻¹. For the same protein, the Km (Abz-R76-SEDAGFQ-EDDnp) was 4.1 µM, the kcat (Abz-R76-SEDAGFQ-EDDnp) was 0.06 s⁻¹ and the kcat/Km (Abz-R76-SEDAGFQ-EDDnp) was 14600 M⁻¹ s⁻¹. The Km (Abz-G386-SSDAAEQ-EDDnp) was 2.4 µM, the kcat (Abz-G386-SSDAAEQ-EDDnp) was 0.3 s⁻¹ and the kcat/Km (Abz-G386-SSDAAEQ-EDDnp) was 125000 M⁻¹ s⁻¹. For the same protein, the Km (Abz-T294-HLDTKKQ-EDDnp) was 15 µM, the kcat (Abz-T294-HLDTKKQ-EDDnp) was 0.02 s⁻¹ and the kcat/Km (Abz-T294-HLDTKKQ-EDDnp) was 1300 M⁻¹ s⁻¹. It also gave a Km (Abz-L94-MMDFRGQ-EDDnp) of 17 µM, a kcat (Abz-L94-MMDFRGQ-EDDnp) of 0.8 s⁻¹ and a kcat/Km (Abz-L94-MMDFRGQ-EDDnp) of 45000 M⁻¹ s⁻¹.

B2: secPHEX (Homo sapiens) (protein)
chain: SLQAKQEYCLKPECIEAAAAILSKVNLSVDPCDNFFRFACDGWISNNPIPEDMPSYGVYPWLRHNVDLKLKELLEKSISRRRDTEAIQKAKILYSSCMNEKAIEKADAKPLLHILRHSPFRWPVLESNIGPEGVWSERKFSLLQTLATFRGQYSNSVFIRLYVSPDDKASNEHILKLDQATLSLAVREDYLDNSTEAKSYRDALYKFMVDTAVLLGANSSRAEHDMKSVLRLEIKIAEIMIPHENRTSEAMYNKMNISELSAMIPQFDWLGYIKKVIDTRLYPHLKDISPSENVVVRVPQYFKDLFRILGSERKKTIANYLVWRMVYSRIPNLSRRFQYRWLEFSRVIQGTTTLLPQWDKCVNFIESALPYVVGKMFVDVYFQEDKKEMMEELVEGVRWAFIDMLEKENEWMDAGTKRKAKEKARAVLAKVGYPEFIMNDTHVNEDLKAIKFSEADYFGNVLQTRKYLAQSDFFWLRKAVPKTEWFTNPTTVNAFYSASTNQIRFPAGELQKPFFWGTEYPRSLSYGAIGVIVGHEFTHGFDNNGRKYDKNGNLDPWWSTESEEKFKEKTKCMINQYSNYYWKKAGLNVKGKRTLGENIADNGGLREAFRAYRKWINDRRQGLEEPLLPGITFTNNQLFFLSYAHVRCNSYRPEAAREQVQIGAHSPPQFRVNGAISNFEEFQKAFNCPPNSTMNRGMDSCRLW
notes: pure soluble form of PHEX (secPHEX); made in house
Protein B2 has a Km [3] of 5 µM.
